Consider 1 substance from patent US20240277868.

The subject of this data set is synthetic TNF-derived myristoylated peptide.

With “purified recombinant His-tagged wild type SIRT6”, the KmPEP was 61.1 µM.
